Assay results: paper PMC3384324 (Nucleic Acids Research, 2012)

Biological target: the molecule itself
Experiment: cross-linking

B1: His6-PfORC1N_(1–238) (domain or fragment, Plasmodium falciparum 3D7, UniProt Q8I615 1-238, looked up)
chain: MTPKKKIFQNFQANDNEILSPTKKGIKLNVSKLNILNFENTIITKEKTNYEYKASLNKEIDEVLNNNNIINTHNNKKNNLNLYDYNNIKNSTHEFYIDLNEQNKQTIKYNDNKFTPINKKEKYNLDETSSSSISSSLTNISSSLTNISSSLTNISSSLSNSLDEKKKKKKIKKNNSTIINILNNNNNNSNIHHNNKHNIYNKYNISKKPQNKEIHTLPSNHQIKKKSNNTYNTCQQKM
For B1, the “stoichiometry N” value was 2.
